Test results published in IntAct's records for PubMed 23454120.

B1: Rho-related GTP-binding protein RhoD (Mus musculus), P97348 (parent)
chain: MNASQVAGEEAPQSGHSVKVVLVGDGGCGKTSLMMVFAKGAFPESYSPTVFERYNATLQMKGKPVHLQIWDTAGQDDYDRLRPLFYPDANVLLLCFDVTNPNSFDNVSNRWYPEVTHFCKGVPIIVVGCKIDLRKDKVLVNNLRKKRLEPVTYHRGHDMARSVGAVAYLECSARLHDNVEAVFQEAAEVALSSRRHNFWRRITQNCCLAT

Variants of: B1
Conditions: with dapk3_human DAPK3, O43293
dapk3_human DAPK3, O43293, sequence (O43293 whole entry, looked up): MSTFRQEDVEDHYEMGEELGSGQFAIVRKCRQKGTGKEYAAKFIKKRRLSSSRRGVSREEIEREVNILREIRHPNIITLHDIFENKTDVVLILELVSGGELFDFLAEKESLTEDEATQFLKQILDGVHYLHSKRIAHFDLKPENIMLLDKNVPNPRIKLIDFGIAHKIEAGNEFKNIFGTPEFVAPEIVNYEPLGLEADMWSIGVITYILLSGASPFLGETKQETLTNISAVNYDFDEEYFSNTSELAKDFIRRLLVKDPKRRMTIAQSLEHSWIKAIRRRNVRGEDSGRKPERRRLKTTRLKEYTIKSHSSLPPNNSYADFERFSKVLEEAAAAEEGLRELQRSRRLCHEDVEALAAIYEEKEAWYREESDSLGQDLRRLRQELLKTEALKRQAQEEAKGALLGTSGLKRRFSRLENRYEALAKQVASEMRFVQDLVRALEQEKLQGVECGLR

**Q.** With MNASQVAGEEAPQSGHSVKVVLVGDGGCGKNSLMMVFAKGAFPESYSPTVFERYNATLQMKGKPVHLQIWDTAGQDDYDRLRPLFYPDANVLLLCFDVTNPNSFDNVSNRWYPEVTHFCKGVPIIVVGCKIDLRKDKVLVNNLRKKRLEPVTYHRGHDMARSVGAVAYLECSARLHDNVEAVFQEAAEVALSSRRHNFWRRITQNCCLAT [T31N] as the variant, how does the “effect of a mutation on the interaction” value read?
**A.** disrupting interaction
